Source: the supplement of paper PMC9233669
Fewer inactive variants are shown than the library holds.

What was measured:
[1] = test system: biotinyl-Ile-oxazolone; assay: self-aminoacylation, catalytic enhancement (BIO) (fold over background); higher = more active; k-Seq, kA / k0A0; sequences stand for … in GGGAAUGGAUCCACAUCUACGAAUUC…UUCACUGCAGACUUGACGAAGCUG
Outline: (§1)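 Working in 50 μL HEPES/NaCl/KCl/MgCl2/CaCl2 buffer with 5% acetonitrile at pH 6.9–7.0, mutagenized RNA pools (0.43 μM; 21-nt variable region) were reacted with 2–1250 μM of each biotinyl-aminoacyl-oxazolone for 90 minutes at room temperature. Streptavidin capture followed, with quantification by triplicate qPCR and Illumina sequencing. Catalytic enhancement is reported as median kA over the uncatalyzed rate, the low-activity peak of a bimodal Gaussian fit to the data.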

[2] = test system: biotinyl-Phe-oxazolone; assay: self-aminoacylation, catalytic enhancement (BFO) (fold over background); higher = more active; k-Seq, kA / k0A0; sequences stand for … in GGGAAUGGAUCCACAUCUACGAAUUC…UUCACUGCAGACUUGACGAAGCUG
Outline: as §1

[3] = test system: biotinyl-Met-oxazolone; assay: self-aminoacylation, catalytic enhancement (BMO) (fold over background); higher = more active; k-Seq, kA / k0A0; sequences stand for … in GGGAAUGGAUCCACAUCUACGAAUUC…UUCACUGCAGACUUGACGAAGCUG
Outline: as §1

[4] = test system: biotinyl-Val-oxazolone; assay: self-aminoacylation, catalytic enhancement (BVO) (fold over background); higher = more active; k-Seq, kA / k0A0; sequences stand for … in GGGAAUGGAUCCACAUCUACGAAUUC…UUCACUGCAGACUUGACGAAGCUG
Outline: as §1

[5] = test system: biotinyl-Trp-oxazolone; assay: self-aminoacylation, catalytic enhancement (BWO) (fold over background); higher = more active; k-Seq, kA / k0A0; sequences stand for … in GGGAAUGGAUCCACAUCUACGAAUUC…UUCACUGCAGACUUGACGAAGCUG
Outline: as §1

[6] = test system: biotinyl-Leu-oxazolone; assay: self-aminoacylation, catalytic enhancement (BLO) (fold over background); higher = more active; k-Seq, kA / k0A0; sequences stand for … in GGGAAUGGAUCCACAUCUACGAAUUC…UUCACUGCAGACUUGACGAAGCUG
Outline: as §1

| Sequence | self-aminoacylation [1] | self-aminoacylation [2] | self-aminoacylation [3] | self-aminoacylation [4] | self-aminoacylation [5] | self-aminoacylation [6] |
| --- | --- | --- | --- | --- | --- | --- |
| AUUUACAUAGGUCAUCGGGUG [Fam2.2 aminoacylation ribozyme variant] | 3.38 | 39 | 5.69 | 3.38 | 5.5 | 6.44 |
| AUUUACCUAGGUCAUCGGGCG [Fam2.2 aminoacylation ribozyme variant] | 2.57 | 3.65 | 3.93 | 3 | 3.25 | 4.32 |
| AUUUACCUAGGUCAUCGGGGG [Fam2.2 aminoacylation ribozyme variant] | 2.81 | 3.14 | 3.84 | 2.46 | 2.43 | 4.77 |
| AUUUACCUAGGUCAUCGGGUC [Fam2.2 aminoacylation ribozyme variant] | 1.12 | 0.638 | 1.26 | 1.27 | 1.02 | 1.33 |
| AUUUACCUAGGUCAUCGGGUU [Fam2.2 aminoacylation ribozyme variant] | 5.12 | 36.2 | 8.02 | 4.59 | 6.98 | 11.7 |
| AUUUACCUAGGUCAUGGGGUG [Fam2.2 aminoacylation ribozyme variant] | 3.3 | 25.7 | 4.54 | 2.85 | 4.29 | 6.06 |
| AUUUACCUAGGUCGUCGGGUG [Fam2.2 aminoacylation ribozyme variant] | 1.46 | 9.82 | 1.61 | 1.82 | 0.963 | 1.88 |
| AUUUACCUAGGUCUUCGGGUG [Fam2.2 aminoacylation ribozyme variant] | 2.84 | 24.9 | 4.28 | 3.38 | 3.92 | 4.16 |
| AUUUCCCUGGGCAUCGAGUGA [Fam2.1 aminoacylation ribozyme variant] | 3 | 32.6 | 5.56 | 3.21 | 6.79 | 6.7 |
| AUUUCCCUGGUCAGCGAGUGA [Fam2.1 aminoacylation ribozyme variant] | 4.15 | 37.4 | 6.28 | 3.85 | 6.86 | 6.54 |
| AUUUGCCUAGGUCAUCGGGUG [Fam2.2 aminoacylation ribozyme variant] | 16 | 195 | 28 | 14.1 | 24.6 | 38.3 |
| CAACACUUCAAACAAUCGGUC [Fam1B.1 aminoacylation ribozyme variant] | 1.36 | 78.2 | 1.84 | 1.38 | 38.2 | 2.11 |
| CAACACUUCAAGCAAUCGGCC [Fam1B.1 aminoacylation ribozyme variant] | 2.57 | 4.12 | 2.64 | 2.58 | 3.87 | 2.45 |
| CAACACUUCAAGCAAUCGGUC [Fam1B.1 aminoacylation ribozyme variant] | 1.13 | 43.1 | 1.11 | 1.27 | 20.1 | 1.55 |
| CAACACUUCAAGCAUUCGGUC [Fam1B.1 aminoacylation ribozyme variant] | 1.71 | 1.04 | 1.61 | 1.76 | 1.83 | 1.58 |
| CAACACUUCAAGGAAUCGGUC [Fam1B.1 aminoacylation ribozyme variant] | 1.47 | 3.28 | 1.07 | 1.03 | 3.1 | 0.95 |
| CAACACUUCAAGUAAUCGGUC [Fam1B.1 aminoacylation ribozyme variant] | 0.979 | 10.4 | 1.05 | 0.899 | 7.22 | 1.19 |
| CAACACUUCAAUCAAUCGGUC [Fam1B.1 aminoacylation ribozyme variant] | 1.06 | 34.9 | 1.19 | 1.05 | 19.1 | 1.66 |
| CAACACUUCCAGCAAUCGGUC [Fam1B.1 aminoacylation ribozyme variant] | 1.41 | 0.986 | 1.1 | 1.26 | 1.01 | 1.1 |
| CAACUCCAAACAAUCGGUCUG [Fam1A.1 aminoacylation ribozyme variant] | 1.31 | 6.95 | 1.36 | 1.14 | 3.05 | 1.1 |
| CAACUCUUCAAGCAAUCGGUC [Fam1B.1 aminoacylation ribozyme variant] | 1.05 | 9.86 | 1.16 | 1.04 | 6.16 | 1.33 |
| CAACUUCAAACAAUCGGUGUG [Fam1A.1 aminoacylation ribozyme variant] | 1.92 | 27.3 | 2.15 | 1.7 | 16.5 | 2.53 |
| CAACUUGAAACAAUCGGUCUG [Fam1A.1 aminoacylation ribozyme variant] | 1.15 | 1.36 | 1.24 | 1.11 | 1.02 | 1.36 |
| CAAUUUCAAACAAUCGGUCUG [Fam1A.1 aminoacylation ribozyme variant] | 1.01 | 9.15 | 1.02 | 0.869 | 5.88 | 0.903 |
| CACCACUUCAAGCAAUCGGUC [Fam1B.1 aminoacylation ribozyme variant] | 1.11 | 40.5 | 1.33 | 1.28 | 21.8 | 1.83 |
| CAGAUUGCUAAUAGUCGCAAG [Fam3.1 aminoacylation ribozyme variant] | 1.37 | 1.9 | 1.24 | 1.28 | 1.31 | 1.23 |

| Sequence | self-aminoacylation [1] | self-aminoacylation [2] | self-aminoacylation [3] | self-aminoacylation [4] | self-aminoacylation [5] | self-aminoacylation [6] |
| --- | --- | --- | --- | --- | --- | --- |
| CAGUUUGCGAAUAGUCGCAAG [Fam3.1 aminoacylation ribozyme variant] | 1.79 | 5.57 | 1.93 | 1.59 | 2 | 2.67 |
| CAGUUUGCUAAUAGUCGGAAG [Fam3.1 aminoacylation ribozyme variant] | 1.27 | 3.05 | 1.26 | 1.35 | 1.43 | 1.11 |
| CAGUUUGCUAAUAGUCUCAAG [Fam3.1 aminoacylation ribozyme variant] | 0.951 | 1.71 | 0.711 | 0.829 | 0.993 | 1.09 |
| CAGUUUGCUAAUAGUGGCAAG [Fam3.1 aminoacylation ribozyme variant] | 0.854 | 0.616 | 1.04 | 0.882 | 0.985 | 0.854 |
| CAGUUUGCUAAUCGUCGCAAG [Fam3.1 aminoacylation ribozyme variant] | 0.971 | 0.994 | 0.993 | 1.07 | 1.05 | 1.32 |
| CAUUUUGCUAAUAGUCGCAAG [Fam3.1 aminoacylation ribozyme variant] | 1.3 | 0.981 | 1.01 | 1.04 | 0.635 | 1.07 |
| CCAAACUUCAAGCAGUCGGUC [Fam1B.1 aminoacylation ribozyme variant] | 1.29 | 0.806 | 1.01 | 1.18 | 0.793 | 1.1 |
| CCAAACUUCAUGCAAUCGGUC [Fam1B.1 aminoacylation ribozyme variant] | 0.959 | 0.558 | 0.703 | 1 | 0.611 | 0.864 |
| CCACAAUUCAAGCAAUCAGUC [Fam1B.1 aminoacylation ribozyme variant] | 0.933 | 1.54 | 0.673 | 0.876 | 0.762 | 0.763 |
| CCACAAUUCAAGCAAUCGGUA [Fam1B.1 aminoacylation ribozyme variant] | 1.26 | 1.33 | 1.19 | 1.17 | 1.13 | 1.43 |
| CCACAAUUCAAGCAAUCGGUG [Fam1B.1 aminoacylation ribozyme variant] | 6.36 | 60.3 | 8.06 | 5.99 | 8.78 | 12.3 |
| CCACAAUUCAAGCAAUCGGUU [Fam1B.1 aminoacylation ribozyme variant] | 1.68 | 1.16 | 1.76 | 1.65 | 1.55 | 1.39 |
| CCACAAUUCAAGCGAUCGGUC [Fam1B.1 aminoacylation ribozyme variant] | 1.37 | 1.53 | 1.28 | 1.47 | 1.12 | 1.56 |
| CCACAAUUUAAGCAAUCGGUC [Fam1B.1 aminoacylation ribozyme variant] | 1.2 | 1.12 | 0.776 | 1.02 | 0.864 | 0.824 |
| CCACACAUCAAGCAAUCGCUC [Fam1B.1 aminoacylation ribozyme variant] | 1.43 | 0.869 | 1.04 | 1.68 | 1.64 | 1.21 |
| CCACACAUCAAGCAUUCGGUC [Fam1B.1 aminoacylation ribozyme variant] | 1.75 | 1.02 | 1.6 | 1.64 | 1.19 | 1.48 |
| CCACACAUCAAGCGAUCGGUC [Fam1B.1 aminoacylation ribozyme variant] | 0.954 | 0.766 | 1.09 | 1.07 | 1.38 | 0.969 |
| CCACACCCCAAGCAAUCGGUC [Fam1B.1 aminoacylation ribozyme variant] | 1.6 | 1.04 | 0.627 | 1.37 | 0.888 | 1.04 |
| CCACACCUAAAGCAAUCGGUC [Fam1B.1 aminoacylation ribozyme variant] | 1 | 1.09 | 0.876 | 1.31 | 1.01 | 1.02 |
| CCACACCUCAAGCAAUCGGGC [Fam1B.1 aminoacylation ribozyme variant] | 1.86 | 1.92 | 1.49 | 2.33 | 2.11 | 1.71 |
| CCACACCUCAAGCAAUCGGUG [Fam1B.1 aminoacylation ribozyme variant] | 3.55 | 32.5 | 5.05 | 3.17 | 5.99 | 7.12 |
| CCACACCUCACGCAAUCGGUC [Fam1B.1 aminoacylation ribozyme variant] | 1.84 | 1.34 | 1.27 | 1.99 | 2.13 | 1.58 |
| CCACACCUCGAGCAAUCGGUC [Fam1B.1 aminoacylation ribozyme variant] | 1.39 | 0.967 | 1.18 | 1.88 | 1.95 | 1.11 |
| CCACACGACAAGCAAUCGGUC [Fam1B.1 aminoacylation ribozyme variant] | 0.924 | 0.767 | 0.948 | 1.37 | 0.908 | 0.697 |
| CCACACGUCAAGCAAGCGGUC [Fam1B.1 aminoacylation ribozyme variant] | 0.826 | 0.494 | 1.24 | 1.57 | 0.697 | 1.19 |
